Laboratory results reported in paper PMC4506499.

Legend:
[1] = target: T1, Human Upf1-CH-HD (115-914 amino acids) (human) (UniProt Q92900)
T1 sequence: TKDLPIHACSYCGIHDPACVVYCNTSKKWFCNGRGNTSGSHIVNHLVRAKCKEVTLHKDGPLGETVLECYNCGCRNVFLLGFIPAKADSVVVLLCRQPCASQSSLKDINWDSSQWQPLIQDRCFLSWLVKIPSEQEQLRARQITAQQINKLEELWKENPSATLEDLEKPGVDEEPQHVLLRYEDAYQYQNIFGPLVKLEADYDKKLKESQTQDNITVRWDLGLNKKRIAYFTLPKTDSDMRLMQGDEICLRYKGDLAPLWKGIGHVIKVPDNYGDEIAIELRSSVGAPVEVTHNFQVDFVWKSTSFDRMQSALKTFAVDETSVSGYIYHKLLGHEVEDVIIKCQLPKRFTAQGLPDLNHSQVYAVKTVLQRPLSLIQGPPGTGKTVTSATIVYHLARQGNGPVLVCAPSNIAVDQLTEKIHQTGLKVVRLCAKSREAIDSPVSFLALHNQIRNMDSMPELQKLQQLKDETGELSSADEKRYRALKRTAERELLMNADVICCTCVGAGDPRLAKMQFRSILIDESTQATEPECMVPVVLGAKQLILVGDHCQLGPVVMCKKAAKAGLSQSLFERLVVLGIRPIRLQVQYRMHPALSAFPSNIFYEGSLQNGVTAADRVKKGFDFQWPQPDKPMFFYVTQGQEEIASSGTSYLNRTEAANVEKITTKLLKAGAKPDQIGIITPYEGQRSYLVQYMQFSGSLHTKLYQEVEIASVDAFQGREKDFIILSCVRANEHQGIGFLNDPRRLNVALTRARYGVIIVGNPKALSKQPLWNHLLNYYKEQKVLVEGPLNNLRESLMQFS

[2] = target: T1, Human Upf1-CH-HD (115-914 amino acids) (human); remark: listed apart in the source
[3] = target: T1, Human Upf1-CH-HD (115-914 amino acids) (human); remark: listed apart in the source

share of Upf1-CH-HD/Upf2 binding events with a normal rising edge but a falling edge interrupted by blocking (magnetic tweezers, DNA hairpin) [1]: 76%
processivity factor fp (enzymes reaching the hairpin apex over total bursts), magnetic tweezers on the 1.2 kb DNA hairpin (fraction (24 of 25 bursts)) [2]: 0.96
activity ratio Ac=u/(u+b) (unwinding events over unwinding plus binding events), magnetic tweezers on a DNA hairpin; Upf1-CH-HD alone Ac=49% [3]: 81%
Substance: Human Upf2 (761-1227 amino acids) (from UniProt Q9HAU5 761-1227) (domain or fragment)
